Results published in patent US20220298218A1 (ANTAG THERAPEUTICS, published 2022).
*1 amine or outer side, *2 acyl side, *3 side chain or, on linkers, in order; H or OH if unused. Where no end group is shown, it is not given here. Side-chain parts run from the residue outwards. The star is where a group is joined. C18 diacid = O=C(O)CCCCCCCCCCCCCCCCC(=O)*; C16 diacid = O=C(O)CCCCCCCCCCCCCCC(=O)*; γGlu = O=C(O)[C@H](CCC(=O)[*:2])N[*:1]; AEEA = NCCOCCOCC(=O)O

T1: human GIP receptor (human, UniProt P48546 22-466)
T1 sequence (looked up): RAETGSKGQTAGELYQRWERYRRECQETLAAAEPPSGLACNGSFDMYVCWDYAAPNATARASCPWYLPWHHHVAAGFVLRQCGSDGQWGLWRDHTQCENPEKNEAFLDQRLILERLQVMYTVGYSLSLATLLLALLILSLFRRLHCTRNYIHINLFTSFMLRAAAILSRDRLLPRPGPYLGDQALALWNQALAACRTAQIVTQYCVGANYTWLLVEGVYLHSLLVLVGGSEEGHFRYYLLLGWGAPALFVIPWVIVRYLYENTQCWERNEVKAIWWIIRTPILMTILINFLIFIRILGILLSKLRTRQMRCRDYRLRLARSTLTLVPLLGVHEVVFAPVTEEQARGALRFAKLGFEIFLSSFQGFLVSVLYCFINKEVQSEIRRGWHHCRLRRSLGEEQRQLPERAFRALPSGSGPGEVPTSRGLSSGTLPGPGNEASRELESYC

B1: AT422 (peptide)
peptide: SGTFISDYSIAMDKIK([AEEA-AEEA-AEEA-γGlu-C18 diacid])QQDFVNWLLAQKGKKNDW-OH
modifications: N-terminus assumed
SMILES: CC[C@H](C)[C@H](NC(=O)[C@H](CO)NC(=O)[C@H](Cc1ccc(O)cc1)NC(=O)[C@H](CC(=O)O)NC(=O)[C@H](CO)NC(=O)[C@@H](NC(=O)[C@H](Cc1ccccc1)NC(=O)[C@@H](NC(=O)CNC(=O)[C@@H](N)CO)[C@@H](C)O)[C@@H](C)CC)C(=O)N[C@@H](C)C(=O)N[C@@H](CCSC)C(=O)N[C@@H](CC(=O)O)C(=O)N[C@@H](CCCCN)C(=O)N[C@H](C(=O)N[C@@H](CCCCNC(=O)COCCOCCNC(=O)COCCOCCNC(=O)COCCOCCNC(=O)CC[C@H](NC(=O)CCCCCCCCCCCCCCCCC(=O)O)C(=O)O)C(=O)N[C@@H](CCC(N)=O)C(=O)N[C@@H](CCC(N)=O)C(=O)N[C@@H](CC(=O)O)C(=O)N[C@@H](Cc1ccccc1)C(=O)N[C@H](C(=O)N[C@@H](CC(N)=O)C(=O)N[C@@H](Cc1c[nH]c2ccccc12)C(=O)N[C@@H](CC(C)C)C(=O)N[C@@H](CC(C)C)C(=O)N[C@@H](C)C(=O)N[C@@H](CCC(N)=O)C(=O)N[C@@H](CCCCN)C(=O)NCC(=O)N[C@@H](CCCCN)C(=O)N[C@@H](CCCCN)C(=O)N[C@@H](CC(N)=O)C(=O)N[C@@H](CC(=O)O)C(=O)N[C@@H](Cc1c[nH]c2ccccc12)C(=O)O)C(C)C)[C@@H](C)CC
B2: AT366 (peptide)
peptide: TFISDYKIAMDKIHQQDFVNWLLAQKGKKNDW
HELM: PEPTIDE1{T.F.I.S.D.Y.K.I.A.M.D.K.I.H.Q.Q.D.F.V.N.W.L.L.A.Q.K.G.K.K.N.D.W}|PEPTIDE2{[O=C(O)CCCCCCCCCCCCCCC(=O)[*:2]].[gGlu]}$PEPTIDE1,PEPTIDE2,7:R3-2:R2$$$V2.0; N-terminus assumed
SMILES: CC[C@H](C)[C@H](NC(=O)[C@H](CCCCNC(=O)CC[C@H](NC(=O)CCCCCCCCCCCCCCC(=O)O)C(=O)O)NC(=O)[C@H](Cc1ccc(O)cc1)NC(=O)[C@H](CC(=O)O)NC(=O)[C@H](CO)NC(=O)[C@@H](NC(=O)[C@H](Cc1ccccc1)NC(=O)[C@@H](N)[C@@H](C)O)[C@@H](C)CC)C(=O)N[C@@H](C)C(=O)N[C@@H](CCSC)C(=O)N[C@@H](CC(=O)O)C(=O)N[C@@H](CCCCN)C(=O)N[C@H](C(=O)N[C@@H](Cc1c[nH]cn1)C(=O)N[C@@H](CCC(N)=O)C(=O)N[C@@H](CCC(N)=O)C(=O)N[C@@H](CC(=O)O)C(=O)N[C@@H](Cc1ccccc1)C(=O)N[C@H](C(=O)N[C@@H](CC(N)=O)C(=O)N[C@@H](Cc1c[nH]c2ccccc12)C(=O)N[C@@H](CC(C)C)C(=O)N[C@@H](CC(C)C)C(=O)N[C@@H](C)C(=O)N[C@@H](CCC(N)=O)C(=O)N[C@@H](CCCCN)C(=O)NCC(=O)N[C@@H](CCCCN)C(=O)N[C@@H](CCCCN)C(=O)N[C@@H](CC(N)=O)C(=O)N[C@@H](CC(=O)O)C(=O)N[C@@H](Cc1c[nH]c2ccccc12)C(=O)O)C(C)C)[C@@H](C)CC
B3: AT365 (peptide)
peptide: TFISDYKIAMDKIHQQDFVNWLLAQKGKK
HELM: PEPTIDE1{T.F.I.S.D.Y.K.I.A.M.D.K.I.H.Q.Q.D.F.V.N.W.L.L.A.Q.K.G.K.K}|PEPTIDE2{[O=C(O)CCCCCCCCCCCCCCC(=O)[*:2]].[gGlu]}$PEPTIDE1,PEPTIDE2,7:R3-2:R2$$$V2.0; N-terminus assumed
SMILES: CC[C@H](C)[C@H](NC(=O)[C@H](CCCCNC(=O)CC[C@H](NC(=O)CCCCCCCCCCCCCCC(=O)O)C(=O)O)NC(=O)[C@H](Cc1ccc(O)cc1)NC(=O)[C@H](CC(=O)O)NC(=O)[C@H](CO)NC(=O)[C@@H](NC(=O)[C@H](Cc1ccccc1)NC(=O)[C@@H](N)[C@@H](C)O)[C@@H](C)CC)C(=O)N[C@@H](C)C(=O)N[C@@H](CCSC)C(=O)N[C@@H](CC(=O)O)C(=O)N[C@@H](CCCCN)C(=O)N[C@H](C(=O)N[C@@H](Cc1c[nH]cn1)C(=O)N[C@@H](CCC(N)=O)C(=O)N[C@@H](CCC(N)=O)C(=O)N[C@@H](CC(=O)O)C(=O)N[C@@H](Cc1ccccc1)C(=O)N[C@H](C(=O)N[C@@H](CC(N)=O)C(=O)N[C@@H](Cc1c[nH]c2ccccc12)C(=O)N[C@@H](CC(C)C)C(=O)N[C@@H](CC(C)C)C(=O)N[C@@H](C)C(=O)N[C@@H](CCC(N)=O)C(=O)N[C@@H](CCCCN)C(=O)NCC(=O)N[C@@H](CCCCN)C(=O)N[C@@H](CCCCN)C(=O)O)C(C)C)[C@@H](C)CC
B4: AT423 (peptide)
peptide: SGTFISDYSIAMDRIK([AEEA-AEEA-γGlu-C16 diacid])QQDFVNWLLAQRGRRNDW-OH
modifications: N-terminus assumed
SMILES: CC[C@H](C)[C@H](NC(=O)[C@H](CO)NC(=O)[C@H](Cc1ccc(O)cc1)NC(=O)[C@H](CC(=O)O)NC(=O)[C@H](CO)NC(=O)[C@@H](NC(=O)[C@H](Cc1ccccc1)NC(=O)[C@@H](NC(=O)CNC(=O)[C@@H](N)CO)[C@@H](C)O)[C@@H](C)CC)C(=O)N[C@@H](C)C(=O)N[C@@H](CCSC)C(=O)N[C@@H](CC(=O)O)C(=O)N[C@@H](CCCNC(=N)N)C(=O)N[C@H](C(=O)N[C@@H](CCCCNC(=O)COCCOCCNC(=O)COCCOCCNC(=O)CC[C@H](NC(=O)CCCCCCCCCCCCCCC(=O)O)C(=O)O)C(=O)N[C@@H](CCC(N)=O)C(=O)N[C@@H](CCC(N)=O)C(=O)N[C@@H](CC(=O)O)C(=O)N[C@@H](Cc1ccccc1)C(=O)N[C@H](C(=O)N[C@@H](CC(N)=O)C(=O)N[C@@H](Cc1c[nH]c2ccccc12)C(=O)N[C@@H](CC(C)C)C(=O)N[C@@H](CC(C)C)C(=O)N[C@@H](C)C(=O)N[C@@H](CCC(N)=O)C(=O)N[C@@H](CCCNC(=N)N)C(=O)NCC(=O)N[C@@H](CCCNC(=N)N)C(=O)N[C@@H](CCCNC(=N)N)C(=O)N[C@@H](CC(N)=O)C(=O)N[C@@H](CC(=O)O)C(=O)N[C@@H](Cc1c[nH]c2ccccc12)C(=O)O)C(C)C)[C@@H](C)CC
B5: AT364 (peptide)
peptide: EGTFISDYSIAMDKIK(C16 diacid)QQDFVNWLLAQKGPSSGAPPPS-OH
modifications: N-terminus assumed
SMILES: CC[C@H](C)[C@H](NC(=O)[C@H](CO)NC(=O)[C@H](Cc1ccc(O)cc1)NC(=O)[C@H](CC(=O)O)NC(=O)[C@H](CO)NC(=O)[C@@H](NC(=O)[C@H](Cc1ccccc1)NC(=O)[C@@H](NC(=O)CNC(=O)[C@@H](N)CCC(=O)O)[C@@H](C)O)[C@@H](C)CC)C(=O)N[C@@H](C)C(=O)N[C@@H](CCSC)C(=O)N[C@@H](CC(=O)O)C(=O)N[C@@H](CCCCN)C(=O)N[C@H](C(=O)N[C@@H](CCCCNC(=O)CCCCCCCCCCCCCCC(=O)O)C(=O)N[C@@H](CCC(N)=O)C(=O)N[C@@H](CCC(N)=O)C(=O)N[C@@H](CC(=O)O)C(=O)N[C@@H](Cc1ccccc1)C(=O)N[C@H](C(=O)N[C@@H](CC(N)=O)C(=O)N[C@@H](Cc1c[nH]c2ccccc12)C(=O)N[C@@H](CC(C)C)C(=O)N[C@@H](CC(C)C)C(=O)N[C@@H](C)C(=O)N[C@@H](CCC(N)=O)C(=O)N[C@@H](CCCCN)C(=O)NCC(=O)N1CCC[C@H]1C(=O)N[C@@H](CO)C(=O)N[C@@H](CO)C(=O)NCC(=O)N[C@@H](C)C(=O)N1CCC[C@H]1C(=O)N1CCC[C@H]1C(=O)N1CCC[C@H]1C(=O)N[C@@H](CO)C(=O)O)C(C)C)[C@@H](C)CC
B6: AT475 (peptide)
peptide: FISDYSIAMDKIK(C16 diacid)QQDFVNWLLAQKGPSSGAPPPS-OH
modifications: N-terminus assumed
SMILES: CC[C@H](C)[C@H](NC(=O)[C@H](CO)NC(=O)[C@H](Cc1ccc(O)cc1)NC(=O)[C@H](CC(=O)O)NC(=O)[C@H](CO)NC(=O)[C@@H](NC(=O)[C@@H](N)Cc1ccccc1)[C@@H](C)CC)C(=O)N[C@@H](C)C(=O)N[C@@H](CCSC)C(=O)N[C@@H](CC(=O)O)C(=O)N[C@@H](CCCCN)C(=O)N[C@H](C(=O)N[C@@H](CCCCNC(=O)CCCCCCCCCCCCCCC(=O)O)C(=O)N[C@@H](CCC(N)=O)C(=O)N[C@@H](CCC(N)=O)C(=O)N[C@@H](CC(=O)O)C(=O)N[C@@H](Cc1ccccc1)C(=O)N[C@H](C(=O)N[C@@H](CC(N)=O)C(=O)N[C@@H](Cc1c[nH]c2ccccc12)C(=O)N[C@@H](CC(C)C)C(=O)N[C@@H](CC(C)C)C(=O)N[C@@H](C)C(=O)N[C@@H](CCC(N)=O)C(=O)N[C@@H](CCCCN)C(=O)NCC(=O)N1CCC[C@H]1C(=O)N[C@@H](CO)C(=O)N[C@@H](CO)C(=O)NCC(=O)N[C@@H](C)C(=O)N1CCC[C@H]1C(=O)N1CCC[C@H]1C(=O)N1CCC[C@H]1C(=O)N[C@@H](CO)C(=O)O)C(C)C)[C@@H](C)CC

Each binder was assayed against T1, human GIP receptor (assay: cell-based or functional assay).

For B1, the “cAMP agonism Emax” value was 6.

B1 and B2 are the same in “cAMP antagonism” value: 3 nM for the first, 3 nM for the second.

B3 and B4 are the same in “cAMP antagonism” value: 6 nM for the first, 6 nM for the second.

Going from B5 to B6, the “cAMP antagonism” value rises from 1 nM to 4 nM (4-fold).

Compared with B1, B2 is higher in “cAMP antagonism % inhib” value: 90% for the first, 100% for the second.

Going from B3 to B4, the “cAMP antagonism % inhib” value falls from 100% to 95%.

B5 and B6 are the same in “cAMP antagonism % inhib” value: 100% for the first, 100% for the second.

B1 and B2 are the same in cAMP antagonism log: -8.5 log M for the first, -8.5 log M for the second.

B3 and B4 are the same in cAMP antagonism log: -8.2 log M for the first, -8.2 log M for the second.

First: B5
Second: B6
The cAMP antagonism log of the first is lower: -8.9 log M for the first, -8.4 log M for the second.

Target: T1, human GIP receptor
Experiment: cell-based or functional assay
Remark: another data set of the same source

B1 and B2 are the same in “cAMP agonism % Emax” value: 0% for the first, 0% for the second.

B3 and B4 are the same in “cAMP agonism % Emax” value: 0% for the first, 0% for the second.

B5 and B6 are the same in “cAMP agonism % Emax” value: 0% for the first, 0% for the second.

Compared with B1, B2 is 4.8-fold higher in “cAMP antagonism” value: 3.69 nM for the first, 17.8 nM for the second.

Going from B3 to B4, the “cAMP antagonism” value rises from 13.6 nM to 79.4 nM (5.8-fold).

Compared with B5, B6 is 1.7-fold lower in “cAMP antagonism” value: 13.8 nM for the first, 7.9 nM for the second.

First: B1
Second: B2
The “cAMP antagonism % inhib” value of the first is lower: 94% for the first, 100% for the second.

First: B3
Second: B4
The “cAMP antagonism % inhib” value of the first is higher: 100% for the first, 71% for the second.

Compared with B5, B6 is higher in “cAMP antagonism % inhib” value: 87% for the first, 96% for the second.

Compared with B1, B2 is lower in “cAMP antagonism pIC50” value: 8.4 for the first, 7.8 for the second.

Going from B3 to B4, the “cAMP antagonism pIC50” value falls from 7.9 to 7.1.

Going from B5 to B6, the “cAMP antagonism pIC50” value rises from 7.9 to 8.1.
